These results are taken from patent US10525110B2, “Methods for inducing partial apoptosis using caspase polypeptides” (Bellicum Pharmaceuticals, Inc., priority 2013, dated 2020).

B1: F404Y: chimeric modified caspase-9 polypeptide (protein)
chain: VDGFGDVGALESLRGNADLAYILSMEPCGHCLIINNVNFCRESGLRTRTGSNIDCEKLRRRFSSLHFMVEVKGDLTAKKMVLALLELARQDHGALDCCVVVILSHGCQASHLQFPGAVYGTDGCPVSVEKIVNIFNGTSCPSLGGKPKLFFIQACGGEQKDHGFEVASTSPEDESPGSNPEPDATPFQEGLRTFDQLDAISSLPTPSDIFVSYSTFPGFVSWRDPKSGSWYVETLDDIFEQWAHSEDLQSLLLRVANAVSVKGIYKQMPGCYNFLRKKLFFKTSASRA
B2: D330S: chimeric modified caspase-9 polypeptide (protein)
chain: VDGFGDVGALESLRGNADLAYILSMEPCGHCLIINNVNFCRESGLRTRTGSNIDCEKLRRRFSSLHFMVEVKGDLTAKKMVLALLELARQDHGALDCCVVVILSHGCQASHLQFPGAVYGTDGCPVSVEKIVNIFNGTSCPSLGGKPKLFFIQACGGEQKDHGFEVASTSPEDESPGSNPEPDATPFQEGLRTFDQLSAISSLPTPSDIFVSYSTFPGFVSWRDPKSGSWYVETLDDIFEQWAHSEDLQSLLLRVANAVSVKGIYKQMPGCFNFLRKKLFFKTSASRA
B3: D330G: chimeric modified caspase-9 polypeptide (protein)
chain: VDGFGDVGALESLRGNADLAYILSMEPCGHCLIINNVNFCRESGLRTRTGSNIDCEKLRRRFSSLHFMVEVKGDLTAKKMVLALLELARQDHGALDCCVVVILSHGCQASHLQFPGAVYGTDGCPVSVEKIVNIFNGTSCPSLGGKPKLFFIQACGGEQKDHGFEVASTSPEDESPGSNPEPDATPFQEGLRTFDQLGAISSLPTPSDIFVSYSTFPGFVSWRDPKSGSWYVETLDDIFEQWAHSEDLQSLLLRVANAVSVKGIYKQMPGCFNFLRKKLFFKTSASRA
B4: F404W: chimeric modified caspase-9 polypeptide (protein)
chain: VDGFGDVGALESLRGNADLAYILSMEPCGHCLIINNVNFCRESGLRTRTGSNIDCEKLRRRFSSLHFMVEVKGDLTAKKMVLALLELARQDHGALDCCVVVILSHGCQASHLQFPGAVYGTDGCPVSVEKIVNIFNGTSCPSLGGKPKLFFIQACGGEQKDHGFEVASTSPEDESPGSNPEPDATPFQEGLRTFDQLDAISSLPTPSDIFVSYSTFPGFVSWRDPKSGSWYVETLDDIFEQWAHSEDLQSLLLRVANAVSVKGIYKQMPGCWNFLRKKLFFKTSASRA
B5: D330V: chimeric modified caspase-9 polypeptide (protein)
chain: VDGFGDVGALESLRGNADLAYILSMEPCGHCLIINNVNFCRESGLRTRTGSNIDCEKLRRRFSSLHFMVEVKGDLTAKKMVLALLELARQDHGALDCCVVVILSHGCQASHLQFPGAVYGTDGCPVSVEKIVNIFNGTSCPSLGGKPKLFFIQACGGEQKDHGFEVASTSPEDESPGSNPEPDATPFQEGLRTFDQLVAISSLPTPSDIFVSYSTFPGFVSWRDPKSGSWYVETLDDIFEQWAHSEDLQSLLLRVANAVSVKGIYKQMPGCFNFLRKKLFFKTSASRA
B6: D330N: chimeric modified caspase-9 polypeptide (protein)
chain: VDGFGDVGALESLRGNADLAYILSMEPCGHCLIINNVNFCRESGLRTRTGSNIDCEKLRRRFSSLHFMVEVKGDLTAKKMVLALLELARQDHGALDCCVVVILSHGCQASHLQFPGAVYGTDGCPVSVEKIVNIFNGTSCPSLGGKPKLFFIQACGGEQKDHGFEVASTSPEDESPGSNPEPDATPFQEGLRTFDQLNAISSLPTPSDIFVSYSTFPGFVSWRDPKSGSWYVETLDDIFEQWAHSEDLQSLLLRVANAVSVKGIYKQMPGCFNFLRKKLFFKTSASRA
B7: S144A: chimeric modified caspase-9 polypeptide (protein)
chain: VDGFGDVGALEALRGNADLAYILSMEPCGHCLIINNVNFCRESGLRTRTGSNIDCEKLRRRFSSLHFMVEVKGDLTAKKMVLALLELARQDHGALDCCVVVILSHGCQASHLQFPGAVYGTDGCPVSVEKIVNIFNGTSCPSLGGKPKLFFIQACGGEQKDHGFEVASTSPEDESPGSNPEPDATPFQEGLRTFDQLDAISSLPTPSDIFVSYSTFPGFVSWRDPKSGSWYVETLDDIFEQWAHSEDLQSLLLRVANAVSVKGIYKQMPGCFNFLRKKLFFKTSASRA
B8: F406T: chimeric modified caspase-9 polypeptide (protein)
chain: VDGFGDVGALESLRGNADLAYILSMEPCGHCLIINNVNFCRESGLRTRTGSNIDCEKLRRRFSSLHFMVEVKGDLTAKKMVLALLELARQDHGALDCCVVVILSHGCQASHLQFPGAVYGTDGCPVSVEKIVNIFNGTSCPSLGGKPKLFFIQACGGEQKDHGFEVASTSPEDESPGSNPEPDATPFQEGLRTFDQLDAISSLPTPSDIFVSYSTFPGFVSWRDPKSGSWYVETLDDIFEQWAHSEDLQSLLLRVANAVSVKGIYKQMPGCFNTLRKKLFFKTSASRA
B9: F406L: chimeric modified caspase-9 polypeptide (protein)
chain: VDGFGDVGALESLRGNADLAYILSMEPCGHCLIINNVNFCRESGLRTRTGSNIDCEKLRRRFSSLHFMVEVKGDLTAKKMVLALLELARQDHGALDCCVVVILSHGCQASHLQFPGAVYGTDGCPVSVEKIVNIFNGTSCPSLGGKPKLFFIQACGGEQKDHGFEVASTSPEDESPGSNPEPDATPFQEGLRTFDQLDAISSLPTPSDIFVSYSTFPGFVSWRDPKSGSWYVETLDDIFEQWAHSEDLQSLLLRVANAVSVKGIYKQMPGCFNLLRKKLFFKTSASRA

“Also recorded” adds a separate entry of the source.

The first test concerns HEK293T/16 cells. Briefly: Secreted alkaline phosphatase (SEAP) reporter-based surrogate killing assay. The settings on record: AP1903-independent SEAP activity, relative to wild type. It counts as cell-based, human. On the procedure: FIG. 45 provides an analysis of SEAP assays. To examine both basal signaling and AP1903 induced activity, […] early-passage HEK293T/16 cells were co-transfected with various amount of wildtype Caspase and 500 ng of an expression plasmid that uses an SRα promoter to drive SEAP, a marker for cell viability. […] of the mixture was seeded onto each well of a 96-well plate. 100-ul of AP1903 was added at least three hours post-transfection. After addition of AP1903 for at least 24 hours, 100-ul of supernatant was transferred to a 96-well plate and heat denatured at 68 ? C for 30 minutes to inactivate endogenous alkaline phosphatases. For the assay, 4-methylumbelliferyl phosphate substrate was hydrolyzed by SEAP to 4-methylumbelliferon, a metabolite that can be excited with 364 nm and detected with an emission filter of 448 nm. Since SEAP is used as a marker for cell viability, reduced SEAP reading corresponds with increased icaspase-9 activities.
(50A) To examine both basal signaling and AP1903-induced CaspaClDe activity, 10^6 early-passage HEK293T/17 cells were co-transfected with 2 μg of inducible caspase variants along with 500 ng of an expression plasmid using an SRα promoter to transcriptionally regulate SEAP, a surrogate marker for cell viability. 200-μl of the transfection mixture containing plasmids, GeneJammer and HEK293T/17 cells in IMDM+10% FBS (without antibiotics) was seeded into each well of a 96-well plate. To induce caspase activity, 22 μl of serially diluted AP1903 was added 24 hours post-transfection. (50B) To examine basal and AP1903 induced signaling, 100 μl of supernatant was harvested 48 hours post-treatment and heat-denatured at 68° C. for 1 hour to inactivate endogenous alkaline phosphatases. For the assay, 4-methylumbelliferyl phosphate (4-MUP) substrate was hydrolyzed by SEAP to 4-methylumbelliferon, a metabolite with peak excitation at 364 nm and peak emission at 448 nm. Since SEAP is used as a surrogate marker for cell viability, a reduced SEAP reading corresponds to increased caspase-9 activity.
Early passage HEK293T/16 cells (ATCC, Manassas, Va.) were maintained in IMDM, GlutaMAX™ (Life Technologies, Carlsbad, Calif.) supplemented with 10% FBS, 100 U/mL penicillin, and 100 […] until transfection in a humidified, 37° C., 5% CO2/95% air atmosphere. Cells in logarithmic-phase growth were transiently transfected with 800 ng to 2 μg of expression plasmid encoding iCasp9 mutants and 500 ng of an expression plasmid encoding SRα promoter driven SEAP per million cells in 15-mL conical tubes. […] GeneJammer® Transfection Reagent at a ratio of 3 μl per ug of plasmid DNA was used to transiently transfect HEK293T/16 cells in the absence of antibiotics. 100 μl or 2 mL of the transfection mixture was added to each well in 96-well or 6-well plate, respectively. For SEAP assays, log dilutions of AP1903 were added after a minimum 3-hour incubation post-transfection. For western blots, cells were incubated for 20 minutes with AP1903 (10 nM) before harvesting.
Twenty-four to forty-eight hours after AP1903 treatment, ˜100 μl of supernatants were harvested into a 96-well plate and assayed for SEAP activity as described. Briefly, after 65° C. heat denaturation for 45 minutes to reduce background caused by endogenous (and serum-derived) alkaline phosphatases that are sensitive to heat, 5 μl of supernatants was added to 95 μl of PBS and added to 100 μl of substrate buffer, containing 1 μl of 100 mM 4-methylumbelliferyl phosphate (4-MUP; Sigma, St. Louis, Mo.) re-suspended in 2 M diethanolamine. Hydrolysis of 4-MUP by SEAP produces a fluorescent […] with excitation/emission (355/460 nm), which can be easily measured. Assays were performed in black opaque 96-well plates to minimize fluorescence leakage between wells (FIG. 45).
As for B1, the “basal activity / basal signaling (in words)” value was “lower basal signaling; also recorded: lowered basal activity”.
Turning to B2, the “basal activity / basal signaling (in words)” value is given as “less basal activity than wildtype caspase-9”.
With B3, the “basal activity / basal signaling (in words)” value is “less basal activity than wildtype caspase-9”.
The same measure, in the same setting: for B4 the value was “lower basal signaling; also recorded: lowered basal activity”.
Consider B5, for which the “basal activity / basal signaling (in words)” value is reported as “less basal activity than wildtype caspase-9”.
Still for that read-out and setting: in the case of B6 it was “less basal activity than wildtype caspase-9”; in that of B7, “lower basal activity”; in that of B8, “lower basal signaling; also recorded: lowered basal activity”.
Turning to B9, the “basal activity / basal signaling (in words)” value is reported as “lowered basal activity”.

The subject of another test is Activated T cells. Briefly: Control of proliferation of iCasp9-mutant-transduced T cells over 10 days. The test is classed as cell-based. The following applies: AP1903 on days 0 and 4. The text has this:
FIG. 63: iCasp9 mutants with lower sensitivity to AP1903 still control T cell proliferation in vitro. Activated T cells were transduced with retrovirus containing iCasp9 mutants and treated with AP1903 (arrow) on days 0 and 4 and subsequently enumerated for 10 days.
Regarding B1, the “control of T cell proliferation and survival within 10 days (in words)” value is on record as “can kill target T cells indistinguishable from wildtype caspase-9 polypeptide or D330A within 10 days”.
